{"source": "the supplement of paper PMC6757056", "parents": {"B1": {"name": "library; a variant is named by its letters at N, in order (parent)", "chain": "GCUGUCACCGAGAAACUGUGAAGUAUAUCUUAAACCUGGGCACUUAAAAGAUAUAUGGAGUUAGUAGUGCAACCUGCUCGGUCUGAUGAGUCCNNNNNNGGACGAAACAGC"}}, "key": {"cyclic di-GMP [1]": {"variants_of": "B1", "experiment": "normalized RNA/DNA level without ligand (relative to sTRSVctl = 100) (log10 (% of sTRSVctl)); HEK293T; ligand: cyclic di-GMP (c-di-GMP-II aptamer); higher = less ribozyme self-cleavage, higher mRNA level", "conditions": "reporter: mCherry (pCS4076), ligand present: no", "procedure,_shortened": "(§1)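 Total RNA, extracted with EDTA 72 h after HEK293T cells were transfected with 4 µg per 6-well well of reporter-linked ribozyme switch library plasmids, was reverse-transcribed, amplified, barcoded and sequenced. Ligand, if used, was added 1 h before transfection. RNA level was derived from RNA reads divided by DNA reads and normalized to a spiked-in non-cleaving sequence or to the top sequences. This was multiplied by 100 and log10-transformed, with the top set of 25 sequences and a ≥100 DNA read minimum.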"}, "cyclic di-GMP [2]": {"variants_of": "B1", "experiment": "normalized RNA/DNA level with ligand (relative to sTRSVctl = 100) (log10 (% of sTRSVctl)); HEK293T; ligand: cyclic di-GMP (c-di-GMP-II aptamer); ligand concentration (+) RNA-Seq: 1 mM; higher = less ribozyme self-cleavage, higher mRNA level", "conditions": "reporter: mCherry (pCS4076), ligand present: yes", "procedure,_shortened": "as §1"}}, "note": "± gives the standard deviation of the averaged measurements.", "data": [{"variant": "AGCUAA", "values": [{"measurement": "normalized RNA/DNA level without ligand (log10)", "setting": "cyclic di-GMP [1]", "value": "1.49 ± 0.02"}, {"measurement": "normalized RNA/DNA level with ligand (log10)", "setting": "cyclic di-GMP [2]", "value": "1.7 ± 0.13"}]}, {"variant": "GAAAUC", "values": [{"measurement": "normalized RNA/DNA level without ligand (log10)", "setting": "cyclic di-GMP [1]", "value": "1.659 ± 0.012"}, {"measurement": "normalized RNA/DNA level with ligand (log10)", "setting": "cyclic di-GMP [2]", "value": "1.81 ± 0.11"}]}, {"variant": "ACUCUC", "values": [{"measurement": "normalized RNA/DNA level without ligand (log10)", "setting": "cyclic di-GMP [1]", "value": "1.77 ± 0.076"}, {"measurement": "normalized RNA/DNA level with ligand (log10)", "setting": "cyclic di-GMP [2]", "value": "1.86 ± 0.12"}]}, {"variant": "GGCUUC", "values": [{"measurement": "normalized RNA/DNA level without ligand (log10)", "setting": "cyclic di-GMP [1]", "value": "1.75 ± 0.064"}, {"measurement": "normalized RNA/DNA level with ligand (log10)", "setting": "cyclic di-GMP [2]", "value": "1.82 ± 0.12"}]}, {"variant": "AGUCAC", "values": [{"measurement": "normalized RNA/DNA level without ligand (log10)", "setting": "cyclic di-GMP [1]", "value": "1.67 ± 0.062"}, {"measurement": "normalized RNA/DNA level with ligand (log10)", "setting": "cyclic di-GMP [2]", "value": "1.81 ± 0.049"}]}, {"variant": "UUGGGA", "values": [{"measurement": "normalized RNA/DNA level without ligand (log10)", "setting": "cyclic di-GMP [1]", "value": "1.57 ± 0.1"}, {"measurement": "normalized RNA/DNA level with ligand (log10)", "setting": "cyclic di-GMP [2]", "value": "1.72 ± 0.1"}]}, {"variant": "CACAAU", "values": [{"measurement": "normalized RNA/DNA level without ligand (log10)", "setting": "cyclic di-GMP [1]", "value": "1.47 ± 0.11"}, {"measurement": "normalized RNA/DNA level with ligand (log10)", "setting": "cyclic di-GMP [2]", "value": "1.68 ± 0.097"}]}, {"variant": "GCGAGG", "values": [{"measurement": "normalized RNA/DNA level without ligand (log10)", "setting": "cyclic di-GMP [1]", "value": "1.613 ± 0.016"}, {"measurement": "normalized RNA/DNA level with ligand (log10)", "setting": "cyclic di-GMP [2]", "value": "1.75 ± 0.16"}]}, {"variant": "CAGAUG", "values": [{"measurement": "normalized RNA/DNA level without ligand (log10)", "setting": "cyclic di-GMP [1]", "value": "1.63 ± 0.0074"}, {"measurement": "normalized RNA/DNA level with ligand (log10)", "setting": "cyclic di-GMP [2]", "value": "1.75 ± 0.13"}]}, {"variant": "CAGGCA", "values": [{"measurement": "normalized RNA/DNA level without ligand (log10)", "setting": "cyclic di-GMP [1]", "value": "1.615 ± 0.0084"}, {"measurement": "normalized RNA/DNA level with ligand (log10)", "setting": "cyclic di-GMP [2]", "value": "1.71 ± 0.13"}]}, {"variant": "ACGCAC", "values": [{"measurement": "normalized RNA/DNA level without ligand (log10)", "setting": "cyclic di-GMP [1]", "value": "1.61 ± 0.018"}, {"measurement": "normalized RNA/DNA level with ligand (log10)", "setting": "cyclic di-GMP [2]", "value": "1.79 ± 0.11"}]}, {"variant": "GUUGCA", "values": [{"measurement": "normalized RNA/DNA level without ligand (log10)", "setting": "cyclic di-GMP [1]", "value": "1.81 ± 0.038"}, {"measurement": "normalized RNA/DNA level with ligand (log10)", "setting": "cyclic di-GMP [2]", "value": "1.87 ± 0.1"}]}, {"variant": "UGACAC", "values": [{"measurement": "normalized RNA/DNA level without ligand (log10)", "setting": "cyclic di-GMP [1]", "value": "1.7 ± 0.022"}, {"measurement": "normalized RNA/DNA level with ligand (log10)", "setting": "cyclic di-GMP [2]", "value": "1.87 ± 0.086"}]}, {"variant": "AGGCAC", "values": [{"measurement": "normalized RNA/DNA level without ligand (log10)", "setting": "cyclic di-GMP [1]", "value": "1.707 ± 0.011"}, {"measurement": "normalized RNA/DNA level with ligand (log10)", "setting": "cyclic di-GMP [2]", "value": "1.84 ± 0.12"}]}, {"variant": "AACCCG", "values": [{"measurement": "normalized RNA/DNA level without ligand (log10)", "setting": "cyclic di-GMP [1]", "value": "1.665 ± 0.014"}, {"measurement": "normalized RNA/DNA level with ligand (log10)", "setting": "cyclic di-GMP [2]", "value": "1.81 ± 0.06"}]}, {"variant": "CAACGG", "values": [{"measurement": "normalized RNA/DNA level without ligand (log10)", "setting": "cyclic di-GMP [1]", "value": "1.671 ± 0.012"}, {"measurement": "normalized RNA/DNA level with ligand (log10)", "setting": "cyclic di-GMP [2]", "value": "1.77 ± 0.061"}]}, {"variant": "CUGCCU", "values": [{"measurement": "normalized RNA/DNA level without ligand (log10)", "setting": "cyclic di-GMP [1]", "value": "1.64 ± 0.028"}, {"measurement": "normalized RNA/DNA level with ligand (log10)", "setting": "cyclic di-GMP [2]", "value": "1.81 ± 0.15"}]}, {"variant": "CAUACA", "values": [{"measurement": "normalized RNA/DNA level without ligand (log10)", "setting": "cyclic di-GMP [1]", "value": "1.38 ± 0.11"}, {"measurement": "normalized RNA/DNA level with ligand (log10)", "setting": "cyclic di-GMP [2]", "value": "1.58 ± 0.1"}]}, {"variant": "GUCCAC", "values": [{"measurement": "normalized RNA/DNA level without ligand (log10)", "setting": "cyclic di-GMP [1]", "value": "1.6752 ± 0.00073"}, {"measurement": "normalized RNA/DNA level with ligand (log10)", "setting": "cyclic di-GMP [2]", "value": "1.82 ± 0.054"}]}, {"variant": "CAUUUU", "values": [{"measurement": "normalized RNA/DNA level without ligand (log10)", "setting": "cyclic di-GMP [1]", "value": "1.535 ± 0.0069"}, {"measurement": "normalized RNA/DNA level with ligand (log10)", "setting": "cyclic di-GMP [2]", "value": "1.76 ± 0.16"}]}, {"variant": "UAUGUG", "values": [{"measurement": "normalized RNA/DNA level without ligand (log10)", "setting": "cyclic di-GMP [1]", "value": "1.71 ± 0.047"}, {"measurement": "normalized RNA/DNA level with ligand (log10)", "setting": "cyclic di-GMP [2]", "value": "1.86 ± 0.13"}]}, {"variant": "AUUGAC", "values": [{"measurement": "normalized RNA/DNA level without ligand (log10)", "setting": "cyclic di-GMP [1]", "value": "1.663 ± 0.0079"}, {"measurement": "normalized RNA/DNA level with ligand (log10)", "setting": "cyclic di-GMP [2]", "value": "1.79 ± 0.15"}]}, {"variant": "GAGUAC", "values": [{"measurement": "normalized RNA/DNA level without ligand (log10)", "setting": "cyclic di-GMP [1]", "value": "1.8 ± 0.059"}, {"measurement": "normalized RNA/DNA level with ligand (log10)", "setting": "cyclic di-GMP [2]", "value": "1.87 ± 0.11"}]}, {"variant": "CGCUUG", "values": [{"measurement": "normalized RNA/DNA level without ligand (log10)", "setting": "cyclic di-GMP [1]", "value": "1.73 ± 0.043"}, {"measurement": "normalized RNA/DNA level with ligand (log10)", "setting": "cyclic di-GMP [2]", "value": "1.88 ± 0.055"}]}, {"variant": "GGGACU", "values": [{"measurement": "normalized RNA/DNA level without ligand (log10)", "setting": "cyclic di-GMP [1]", "value": "1.68 ± 0.031"}, {"measurement": "normalized RNA/DNA level with ligand (log10)", "setting": "cyclic di-GMP [2]", "value": "1.83 ± 0.056"}]}, {"variant": "AAGUCC", "values": [{"measurement": "normalized RNA/DNA level without ligand (log10)", "setting": "cyclic di-GMP [1]", "value": "1.76 ± 0.051"}, {"measurement": "normalized RNA/DNA level with ligand (log10)", "setting": "cyclic di-GMP [2]", "value": "1.84 ± 0.085"}]}, {"variant": "UUGGUC", "values": [{"measurement": "normalized RNA/DNA level without ligand (log10)", "setting": "cyclic di-GMP [1]", "value": "1.77 ± 0.0052"}, {"measurement": "normalized RNA/DNA level with ligand (log10)", "setting": "cyclic di-GMP [2]", "value": "1.86 ± 0.11"}]}, {"variant": "UACGCG", "values": [{"measurement": "normalized RNA/DNA level without ligand (log10)", "setting": "cyclic di-GMP [1]", "value": "1.81 ± 0.04"}, {"measurement": "normalized RNA/DNA level with ligand (log10)", "setting": "cyclic di-GMP [2]", "value": "1.9 ± 0.11"}]}, {"variant": "GUCGUC", "values": [{"measurement": "normalized RNA/DNA level without ligand (log10)", "setting": "cyclic di-GMP [1]", "value": "1.67 ± 0.036"}, {"measurement": "normalized RNA/DNA level with ligand (log10)", "setting": "cyclic di-GMP [2]", "value": "1.78 ± 0.11"}]}]}
